Test results from patent US9243044B2, “Anticoagulant polypeptide and applications thereof” (GUANGDONG MEDICAL COLLEGE, priority 2011, dated 2016).
“Also recorded” adds a separate entry of the source. Marks after values point to notes of the source that are not given here.

How the values were obtained:
SD rats [1] = experiment: Rat clotting time after i.v. injection, PT; type: in vivo; conditions: for Clotting time PT: rat plasma 2 min after injection
Experimental: 40 SPF grade male SD rats (provided by the laboratory animal center of Guangdong Medical College, 300-350 g body weight) were randomly divided into a line group, and rNAPTin-1 low-dose (100 μg·kg^−1), middle-dose (1 mg·kg^−1), high dose group (5 mg·kg^−1), 10 rats each group. 2 min after intravenous injection of various rNAPTin-1, blood was harvested from animal heart, and injected into an anticoagulant tube (3.8% sodium citrate). Animal plasma was separated by centrifugation (1500×g, 10 mins) and was used to measure aPTT and PT.

SD rats [2] = experiment: Rat inferior vena cava (venous) thrombosis; type: in vivo; conditions: for Thrombosis rate: rats with thrombus / rats, 4 hours after ligation
Experimental: 40 SPF grade male SD rats (provided by the laboratory animal center of Guangdong Medical College, 300-350 g body weight) were randomly divided into saline group, and rNAPTin-1 low-dose (100 μg·kg^−1), middle-dose (1 mg·kg^−1), high dose group (5 mg·kg^−1), 10 rats each group, respectively. These rats were anaesthetized with 10% chloral hydrate (250 mg/kg) by intraperitoneal injection. […] The abdominal cavity was reopened after 4 hours, and the ligated segment was opened longitudinally to check for whether there is thrombus.

SD rats [3] = experiment: Rat arterio-venous shunt thrombus formation model; type: in vivo
Experimental: 50 SPF grade male SD rats (provided by the laboratory animal center of Guangdong Medical College, 300-350 g body weight) were randomly divided into saline control group, positive control group (100 U·kg^−1 heparin sodium, Shanghai No. 1 Biochemical & Pharmaceutical Co. Ltd), and rNAPT-1 low dose (100 μg·kg^−1), middle dose (1 mg·kg^−1), high dose group (5 mg·kg^−1), 10 rats each group, respectively. These rats were anaesthetized with 10% chloral hydrate (250 mg/kg) by intraperitoneal injection. The right common carotid artery and left external jugular vein was exposed and dissected bluntly from the surrounding tissue after a surgical incision. One end of a polyethylene pipe (1.5 mm of diameter, 22 cm of length) with a 5 cm length of No. 4 operation suture in it and filled with 50 U/mL heparin solution was inserted into the right common carotid artery, and the other end was inserted into the left external […] vein. 5 min after tail intravenous injection of drugs, the artery clamp was opened, and blood flow from the right common carotid artery to the left external jugular vein through the polyethylene pipe. After 15 min of blood flow, the suture line was quickly removed and weighed. The net weight of thrombus is total weight minus suture weight; inhibition rate=(wet weight of thrombus of saline control group−wet weight of thrombus of administration group)/wet weight of thrombus of saline control group×100%.

human fXa = biological target: T1, human fXa (Homo sapiens, UniProt P00742); experiment: Chromogenic assay, fXa; type: biochemical
T1 construct: Human coagulation factors IIa (thrombin), Xa, XIa, XIIa, EGR-fXa; purchased Haematologic Technologies Inc (United States)
T1 sequence (P00742 41-179 limits assumed): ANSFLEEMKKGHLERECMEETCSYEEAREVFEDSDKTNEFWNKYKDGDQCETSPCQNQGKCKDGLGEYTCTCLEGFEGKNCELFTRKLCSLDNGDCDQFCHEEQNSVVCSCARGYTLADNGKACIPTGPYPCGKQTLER
T1 sequence (P00742 235-488 limits assumed): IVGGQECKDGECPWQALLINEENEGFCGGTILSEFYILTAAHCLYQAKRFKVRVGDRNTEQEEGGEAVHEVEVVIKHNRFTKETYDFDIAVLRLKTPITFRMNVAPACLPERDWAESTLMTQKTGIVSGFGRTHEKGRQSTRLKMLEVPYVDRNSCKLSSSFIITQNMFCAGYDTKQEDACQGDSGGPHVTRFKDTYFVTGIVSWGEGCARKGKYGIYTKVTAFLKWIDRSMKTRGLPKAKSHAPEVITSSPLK
Method in brief: (§1)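 Recombinant E. coli-expressed polypeptides incubated with 1 nM (final) fIIa, fXa or fXIa; fVIIa tested as fVIIa+TF (1 μM) with EGR-fXa (500 nM final), 15 min at 25 °C.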

human fIIa (thrombin) = biological target: T2, human fIIa (thrombin) (Homo sapiens, UniProt P00734); experiment: Chromogenic assay, fIIa (thrombin); type: biochemical
T2 construct: Human coagulation factors IIa (thrombin), Xa, XIa, XIIa, EGR-fXa; purchased Haematologic Technologies Inc (United States)
Method in brief: as §1

normal human plasma = experiment: aPTT assay in normal human plasma; type: biochemical; conditions: for aPTT: normal human plasma; for multiples of prolonging aPTT: ratio of mean aPTT to blank control
Method in brief: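 Recombinant E. coli-expressed polypeptide at various concentrations was incubated with fresh normal human plasma and aPTT reagent for 15 min at 37° C, then clotting started with prewarmed 0.05 mol/L CaCl2. Clotting time followed by absorbance at 630 nm, triplicates. Value is the fold prolongation of mean aPTT over blank control.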

B1: NAPTin-1 (protein)
chain: NPSCGENERHDECSRKECDPKCKYDGTEEKDDEKPVVCLTRVCYGDCICRDGFLRNKNGACVKAEDCELD
modifications: Sequence derived from Ancylostoma caninum or Synthetic
- Clotting time PT (SD rats [1]; 0.1 mg/kg i.v.): 11.8 ± 0.5
- Clotting time PT (SD rats [1]; 1.0 mg/kg i.v.): 12.0 ± 0.3
- Clotting time PT (SD rats [1]; 5.0 mg/kg i.v.): 11.5 ± 0.8
- effect on rat PT (in words) (SD rats [1]; 0.1-5 mg/kg i.v.): not prolonged PT
- Inhibition rate % (SD rats [2]; 0.1 mg/kg i.v.): 80%
- Thrombosis rate (SD rats [2]; 0.1 mg/kg i.v.): 2/10*
- Inhibition rate % (SD rats [2]; 1.0 mg/kg i.v.): 100%
- Thrombosis rate (SD rats [2]; 1.0 mg/kg i.v.): 0/10*
- Inhibition rate % (SD rats [2]; 5.0 mg/kg i.v.): 100%
- Thrombosis rate (SD rats [2]; 5.0 mg/kg i.v.): 0/10*
- effect on rat venous thrombosis (in words) (SD rats [2]; rat, in vivo): significant antithrombotic effect
- wet weight of thrombus (SD rats [3]; 100 μg·kg^−1 i.v.): 8.5 ± 1.8 mg
- Inhibition rate % (SD rats [3]; 100 μg·kg^−1 i.v., vs saline control): 80.5%
- wet weight of thrombus (SD rats [3]; 1 mg·kg^−1 i.v.): 1.5 ± 0.3 mg
- Inhibition rate % (SD rats [3]; 1 mg·kg^−1 i.v., vs saline control): 97%
- wet weight of thrombus (SD rats [3]; 5 mg·kg^−1 i.v.): 0.3 ± 0.2 mg
- Inhibition rate % (SD rats [3]; 5 mg·kg^−1 i.v., vs saline control): 99%
- effect on arterio-venous shunt thrombosis (in words) (SD rats [3]; vs saline control, P<0.01): could inhibit rat arterio-venous shunt thrombosis
- effect on fXa activity (in words) (human fXa; 100 nM): without affecting; also recorded: no significant inhibitory activity
- effect on fXa activity (in words) (human fXa; 200 nM): without affecting
- effect on fIIa activity (in words) (human fIIa (thrombin); 100 nM): without affecting
- effect on fIIa activity (in words) (human fIIa (thrombin); 200 nM): without affecting
- prolongation of aPTT (in words) (normal human plasma; 100 nM and 500 nM): significantly prolong aPTT
- aPTT (normal human plasma; 100 nM): 79.2 ± 3.5 s
- multiples of prolonging aPTT (normal human plasma; 100 nM): 1.98
- aPTT (normal human plasma; 500 nM): 228.3 ± 7.4 s
- multiples of prolonging aPTT (normal human plasma; 500 nM): 5.69
